# In US20230303715A1:
# Key:
# [1] = biological target: FcγRIIa (UniProt P12318); test: SPR; KD wt/KD mut vs 16588
# [2] = biological target: FcγRIIb (UniProt P31994); test: SPR; KD wt/KD mut vs 16588
# [3] = biological target: FcγRIIa (UniProt P12318); test: SPR Biacore, Ab on HER2 chip
# [4] = biological target: FcγRIIb (UniProt P31994); test: SPR Biacore, Ab on HER2 chip
# [5] = biological target: FcγRIII (UniProt P08637); test: SPR ProteOn, Ab on HER2 chip, equilibrium fit
# [6] = biological target: FcγRIIaR (UniProt P12318); test: SPR ProteOn, Ab on HER2 chip, equilibrium fit
# Sequence of FcγRIIaR (P12318 34-217 H167R limits assumed): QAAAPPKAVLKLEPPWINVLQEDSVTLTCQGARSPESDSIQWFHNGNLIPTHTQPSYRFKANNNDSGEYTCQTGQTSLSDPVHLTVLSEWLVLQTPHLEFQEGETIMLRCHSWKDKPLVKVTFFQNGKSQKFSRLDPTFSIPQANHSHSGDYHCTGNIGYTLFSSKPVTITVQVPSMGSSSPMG
# [7] = biological target: FcγRIIaH (UniProt P12318); test: SPR ProteOn, Ab on HER2 chip, equilibrium fit
# Sequence of FcγRIIaH (P12318 34-217 limits assumed): as the sequence (P12318 34-217 H167R limits assumed) above, with R134H counted along it
# [8] = biological target: FcγRIIb (UniProt P31994); test: SPR ProteOn, Ab on HER2 chip, equilibrium fit
# [9] = biological target: biotinylated human FcRn (produced by Protocol 1) (human) (UniProt P55899); test: SPR Biacore T200, FcRn on neutravidin, pH 6
# [10] = biological target: soluble human FcRn (human) (UniProt P55899); test: SPR ProteOn, Ab on protein L, pH 6.0
# [11] = biological target: FcγRI (UniProt P12314); test: SPR ProteOn, Ab on HER2 chip, equilibrium fit
# Sequence of FcγRI (P12314 16-292 limits assumed): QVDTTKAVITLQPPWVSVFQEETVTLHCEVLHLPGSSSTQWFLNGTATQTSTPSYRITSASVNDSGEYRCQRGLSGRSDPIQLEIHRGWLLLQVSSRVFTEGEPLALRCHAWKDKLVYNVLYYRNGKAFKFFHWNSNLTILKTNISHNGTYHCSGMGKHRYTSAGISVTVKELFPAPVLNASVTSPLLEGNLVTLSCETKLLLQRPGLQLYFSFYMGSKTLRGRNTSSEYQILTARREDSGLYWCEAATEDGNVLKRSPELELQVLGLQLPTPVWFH
# [12] = biological target: biotinylated human FcRn (produced by Protocol 1) (human) (UniProt P55899); test: SPR; KD wt/KD mut vs parental variant
# [13] = biological target: FcγRIIaR (UniProt P12318); test: SPR; KD wt/KD mut vs parental variant
# [14] = biological target: FcγRIIaH (UniProt P12318); test: SPR; KD wt/KD mut vs parental variant
# [15] = biological target: FcγRIIb (UniProt P31994); test: SPR; KD wt/KD mut vs parental variant
# [16] = biological target: FcγRIIa (UniProt P12318); test: SPR Biacore, Ab on HER2 chip; KD called ambiguous
# [17] = biological target: FcγRIIb (UniProt P31994); test: SPR Biacore, Ab on HER2 chip; KD called ambiguous
# [18] = biological target: FcγRIII (UniProt P08637); test: SPR; KD wt/KD mut vs parental variant
# Sequence of FcγRIII (P08637 17-208 limits assumed): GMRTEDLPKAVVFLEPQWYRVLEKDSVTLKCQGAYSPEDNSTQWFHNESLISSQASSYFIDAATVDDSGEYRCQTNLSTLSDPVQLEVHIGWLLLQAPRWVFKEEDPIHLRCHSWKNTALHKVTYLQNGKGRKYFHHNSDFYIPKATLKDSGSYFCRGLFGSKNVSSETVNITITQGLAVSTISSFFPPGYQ
# Sequence of FcγRIIb (P31994 43-217 limits assumed): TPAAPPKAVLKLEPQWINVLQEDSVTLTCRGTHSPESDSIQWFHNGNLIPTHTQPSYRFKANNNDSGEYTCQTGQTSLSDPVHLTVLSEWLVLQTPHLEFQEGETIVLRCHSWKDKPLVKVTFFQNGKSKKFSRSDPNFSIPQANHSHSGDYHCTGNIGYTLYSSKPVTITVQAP
Relative FcγRIIa Binding [1],Relative FcγRIIb Binding [2],Kd [3] [µM],Kd [4] [µM],Substance,further results
1.45,1.02,0.758,3.72,trastuzumab Scaffold 1 variant 19322 (V259C_L306C) (antibody),–
–,–,–,–,"trastuzumab full-size antibody with S239D and I332E (Scaffold 7), variant v31517",Kd [5]: 0.032 µM; Kd [6]: 0.775 µM; Kd [7]: 0.775 µM; Kd [8]: 1.25 µM; Kd [9]: 0.337 µM
–,–,1.07,–,trastuzumab Scaffold 1 variant 19303 (A287F) (antibody),Kd [10]: 0.69 µM
1.22,1.24,0.899,3.05,trastuzumab Scaffold 1 variant 19310 (T250V) (antibody),Kd [10]: 0.821 µM
–,–,–,–,trastuzumab Scaffold 7 (S239D/I332E) variant v31520 (M428F_T250V) (antibody),Kd [5]: 0.0321 µM; Kd [6]: 0.667 µM; Kd [7]: 0.644 µM; Kd [11]: 0.0145 nM; Kd [8]: 1.13 µM; Kd [9]: 0.286 µM; Fold [12]: 1.2; Fold [13]: 1.2; Fold [14]: 1.2; Fold [15]: 1.1
0.76,0.7,1.45,5.46,trastuzumab Scaffold 1 variant 19307 (A378W) (antibody),–
1.48,1.71,0.745,2.22,trastuzumab Scaffold 1 variant 19311 (F275I) (antibody),–
–,–,–,–,trastuzumab variant v17078 (WT) (antibody),Kd [5]: 1.48 µM; Kd [6]: 2.07 µM; Kd [11]: 0.0894 nM; Kd [8]: 6.85 µM; Kd [9]: 0.292 µM
1.06,1.08,1.03,3.51,trastuzumab Scaffold 1 variant 19308 (M428F) (antibody),Kd [10]: 0.464 µM
–,–,–,14,trastuzumab Scaffold 1 variant 19324 (D249C_P257C) (antibody),–
1.6,1.85,0.689,2.05,trastuzumab Scaffold 1 variant 19328 (T289C_S304C) (antibody),–
–,–,–,3.46,trastuzumab Scaffold 1 variant 19304 (T289W) (antibody),–
1.72,1.81,0.64,2.1,trastuzumab Scaffold 1 variant 19305 (A339W) (antibody),–
0.71,0.99,1.54,3.82,trastuzumab Scaffold 1 variant 19320 (L242C_K334C) (antibody),Kd [10]: 0.645 µM
0.98,1.03,1.13,3.67,trastuzumab Scaffold 1 variant 19321 (A287C_L306C) (antibody),Kd [10]: 0.693 µM
0.38,0.39,2.93,9.83,trastuzumab Scaffold 1 variant 19329 (F243C_T260C) (antibody),–
1.14,1.35,–,–,trastuzumab Scaffold 1 variant 19326 (V263C_V302C) (antibody),Kd [16]: 0.963 µM; Kd [17]: 2.82 µM; Kd [10]: 0.604 µM
–,–,1.04,3.81,trastuzumab Scaffold 1 variant 19306 (A339Q) (antibody),–
0.94,1.02,1.17,3.72,trastuzumab Scaffold 1 variant 19312 (V279I) (antibody),–

Relative FcγRIIa Binding [1],Relative FcγRIIb Binding [2],Kd [3] [µM],Kd [4] [µM],Substance,further results
–,–,–,–,trastuzumab Scaffold 6 (N297A) variant v31515 (A287F_T250V) (antibody),Kd [11]: 18.7 nM; Kd [9]: 0.553 µM; Fold [12]: 0.8
–,–,–,3.8,"trastuzumab full-size antibody with homodimeric IgG1 Fc (Scaffold 1), variant 16588 (WT)",Kd [10]: 0.641 µM
0.55,0.66,2.02,5.76,trastuzumab Scaffold 1 variant 19318 (L314M) (antibody),–
–,–,–,4.91,trastuzumab Scaffold 1 variant 19325 (F275C_S304C) (antibody),–
1.17,1.29,0.941,2.95,trastuzumab Scaffold 1 variant 19319 (K334R) (antibody),–
0.94,1.01,1.16,3.75,trastuzumab Scaffold 1 variant 19316 (M252S) (antibody),–
0.96,1.03,1.15,3.68,trastuzumab Scaffold 1 variant 19317 (L309Q) (antibody),Kd [10]: 1 µM
0.3,0.22,3.66,17.6,trastuzumab Scaffold 1 variant 19323 (R292C_V302C) (antibody),–
–,–,–,–,"trastuzumab full-size antibody with N297A (Scaffold 6), variant v31513",Kd [11]: 25.7 nM; Kd [9]: 0.467 µM
0.89,0.94,1.24,4.03,trastuzumab Scaffold 1 variant 19313 (V308I) (antibody),–
–,–,–,5.07,trastuzumab Scaffold 1 variant 19309 (L242I) (antibody),–
–,–,–,–,trastuzumab Scaffold 6 (N297A) variant v31516 (M428F_T250V) (antibody),Kd [11]: 20 nM; Kd [9]: 0.36 µM
–,–,–,3.49,trastuzumab Scaffold 1 variant 19314 (Y319F) (antibody),–
0.02,0.23,63.7,16.9,trastuzumab Scaffold 1 variant 19331 (V240C_I332C) (antibody),–
–,–,–,–,trastuzumab Scaffold 7 (S239D/I332E) variant v31518 (A287F_M428F) (antibody),Kd [5]: 0.0309 µM; Kd [6]: 0.691 µM; Kd [7]: 0.671 µM; Kd [11]: 0.0136 nM; Kd [8]: 1.15 µM; Kd [9]: 0.275 µM; Fold [18]: 1; Fold [12]: 1.2; Fold [14]: 1.2
–,–,–,–,trastuzumab Scaffold 7 (S239D/I332E) variant v31519 (A287F_T250V) (antibody),Kd [5]: 0.029 µM; Kd [6]: 0.685 µM; Kd [7]: 0.655 µM; Kd [11]: 0.0108 nM; Kd [9]: 0.47 µM
–,–,–,–,trastuzumab Scaffold 6 (N297A) variant v31514 (A287F_M428F) (antibody),Kd [11]: 16.2 nM; Kd [9]: 0.369 µM; Fold [12]: 1.3
0.97,1.18,1.14,3.22,trastuzumab Scaffold 1 variant 19327 (L242C_I336C) (antibody),–
